We go through five sequences from the supplement of paper PMC5998384.

Data set [1] concerns HeLa Kyoto. Nature of the data set: melting temperature (median over replicates), in situ; higher = more thermally stable.
The test system of data set [2] is HeLa Kyoto. Nature of the data set: solubility in G1/S (NP-40 vs SDS abundance) (log2 ratio); higher = more soluble. The note with it: cell cycle stage: G1/S.
For data set [3], the system named is HeLa Kyoto. Nature of the data set: solubility change mitosis vs G1/S (difference of NP-40 vs SDS log2 ratios) (log2 ratio difference); higher = more soluble in mitosis.
Data set [4] has as its system HeLa Kyoto. Briefly: thermal stability score vs G1/S (z-score of summed log2 fold changes over temperatures); higher = more thermally stable than in G1/S.
[5] abbreviates: cell cycle stage: early G1 (4.5 h after nocodazole release).
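Throughout, for melting temperature (median over replicates), in situ: HeLa Kyoto cells synchronized by double thymidine or nocodazole block, proteins quantified by TMT10plex mass spectrometry, three independent biological replicates.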
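Throughout, for solubility change mitosis vs G1/S (difference of NP-40 vs SDS log2 ratios): synchronized HeLa Kyoto cells (double thymidine block for G1/S, nocodazole release for mitosis), protein amounts in NP-40 versus SDS lysates quantified by mass spectrometry, three biological replicates.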
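Throughout, for solubility in G1/S (NP-40 vs SDS abundance): HeLa Kyoto cells arrested at G1/S by double thymidine block, proteins quantified by TMT10plex mass spectrometry in mild NP-40 versus SDS extracts, three biological replicates.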
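Throughout, for thermal stability score vs G1/S (z-score of summed log2 fold changes over temperatures): synchronized HeLa Kyoto cells, proteins quantified by TMT10plex mass spectrometry, three biological replicates, mitosis taken 0.5 h after nocodazole release, G1/S directly after double thymidine block.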

On to “MPRAPAPLYACLLGLCALLPRLAGLNICTSGSATSCEECLLIHPKCAWCSKEDFGSPRSITSRCDLRANLVKNGCGGEIESPASSFHVLRSLPLSSKGSGSAGWDVIQMTPQEIAVNLRPGDKTTFQLQVRQVEDYPVDLYYLMDLSLSMKDDLDNIRSLGTKLAEEMRKLTSNFRLGFGSFVDKDISPFSYTAPRYQTNPCIGYKLFPNCVPSFGFRHLLPLTDRVDSFNEEVRKQRVSRNRDAPEGGFDAVLQAAVCKEKIGWRKDALHLLVFTTDDVPHIALDGKLGGLVQPHDGQCHLNEANEYTASNQMDYPSLALLGEKLAENNINLIFAVTKNHYMLYKNFTALIPGTTVEILDGDSKNIIQLIINAYNSIRSKVELSVWDQPEDLNLFFTATCQDGVSYPGQRKCEGLKIGDTASFEVSLEARSCPSRHTEHVFALRPVGFRDSLEVGVTYNCTCGCSVGLEPNSARCNGSGTYVCGLCECSPGYLGTRCECQDGENQSVYQNLCREAEGKPLCSGRGDCSCNQCSCFESEFGKIYGPFCECDNFSCARNKGVLCSGHGECHCGECKCHAGYIGDNCNCSTDISTCRGRDGQICSERGHCLCGQCQCTEPGAFGEMCEKCPTCPDACSTKRDCVECLLLHSGKPDNQTCHSLCRDEVITWVDTIVKDDQEAVLCFYKTAKDCVMMFTYVELPSGKSNLTVLREPECGNTPNAMTILLAVVGSILLVGLALLAIWKLLVTIHDRREFAKFQSERSRARYEMASNPLYRKPISTHTVDFTFNKFNKSYNGTVD [ITGB5]”, for which the melting temperature in data set [1] (cell cycle stage: G1/S) was determined as 56 °C; in data set [1] (cell cycle stage: mitosis), 56.7 °C. Further, the “solubility in G1/S (log2)” value in data set [2] was -0.15. Also, the “solubility change mitosis (log2)” value in data set [3] was determined as 0.0246. Further, the thermal stability score in data set [4] (setting [5]) turned out to be 0.876; in data set [4] (cell cycle stage: mitosis), 3.15.

As for “MPRVKAAQAGRQSSAKRHLAEQFAVGEIITDMAKKEWKVGLPIGQGGFGCIYLADMNSSESVGSDAPCVVKVEPSDNGPLFTELKFYQRAAKPEQIQKWIRTRKLKYLGVPKYWGSGLHDKNGKSYRFMIMDRFGSDLQKIYEANAKRFSRKTVLQLSLRILDILEYIHEHEYVHGDIKASNLLLNYKNPDQVYLVDYGLAYRYCPEGVHKEYKEDPKRCHDGTIEFTSIDAHNGVAPSRRGDLEILGYCMIQWLTGHLPWEDNLKDPKYVRDSKIRYRENIASLMDKCFPEKNKPGEIAKYMETVKLLDYTEKPLYENLRDILLQGLKAIGSKDDGKLDLSVVENGGLKAKTITKKRKKEIEESKEPGVEDTEWSNTQTEEAIQTRSRTRKRVQK [VRK1]”, the figures for the melting temperature in data set [1] (cell cycle stage: G1/S) and in data set [1] (cell cycle stage: mitosis) were 48.2 °C and 49.8 °C, respectively. Also, in data set [2], the “solubility in G1/S (log2)” value was -0.215. For the same sequence, the “solubility change mitosis (log2)” value in data set [3] is -0.0401. Further, the thermal stability score in data set [4] (setting [5]) is 3.16; in data set [4] (cell cycle stage: mitosis), 3.91.

On to “MPRVVPDQRSKFENEEFFRKLSRECEIKYTGFRDRPHEERQARFQNACRDGRSEIAFVATGTNLSLQFFPASWQGEQRQTPSREYVDLEREAGKVYLKAPMILNGVCVIWKGWIDLQRLDGMGCLEFDEERAQQEDALAQQAFEEARRRTREFEDRDRSHREEMEVRVSQLLAVTGKKTTRP [CBFB]”, for which the values for the melting temperature in data set [1] (cell cycle stage: G1/S) and in data set [1] (cell cycle stage: mitosis) were 49 °C and 51.2 °C, respectively. In data set [2], the “solubility in G1/S (log2)” value was found to be 0.199. Besides, the “solubility change mitosis (log2)” value in data set [3] was -0.072. Besides, the thermal stability score in data set [4] (setting [5]) turned out to be 0.755; in data set [4] (cell cycle stage: mitosis), 0.955.

Turning to “MPRVYIGRLSYQARERDVERFFKGYGKILEVDLKNGYGFVEFDDLRDADDAVYELNGKDLCGERVIVEHARGPRRDGSYGSGRSGYGYRRSGRDKYGPPTRTEYRLIVENLSSRCSWQDLKDYMRQAGEVTYADAHKGRKNEGVIEFVSYSDMKRALEKLDGTEVNGRKIRLVEDKPGSRRRRSYSRSRSHSRSRSRSRHSRKSRSRSGSSKSSHSKSRSRSRSGSRSRSKSRSRSQSRSRSKKEKSRSPSKEKSRSRSHSAGKSRSKSKDQAEEKIQNNDNVGKPKSRSPSRHKSKSKSRSRSQERRVEEEKRGSVSRGRSQEKSLRQSRSRSRSKGGSRSRSRSRSKSKDKRKGRKRSREESRSRSRSRSKSERSRKRGSKRDSKAGSSKKKKKEDTDRSQSRSPSRSVSKEREHAKSESSQREGRGESENAGTNQETRSRSRSNSKSKPNLPSESRSRSKSASKTRSRSKSRSRSASRSPSRSRSRSHSRS [SRSF4]”, the melting temperature in data set [1] (cell cycle stage: G1/S) was found to be 50.7 °C; in data set [1] (cell cycle stage: mitosis), 50.2 °C. For the same sequence, the “solubility in G1/S (log2)” value in data set [2] was -0.671. Further, in data set [3], the “solubility change mitosis (log2)” value was found to be 0.361. In addition, the figures for the thermal stability score in data set [4] (setting [5]) and in data set [4] (cell cycle stage: mitosis) were -1.55 and -1, respectively.

In the case of “MPSALAIFTCRPNSHPFQERHVYLDEPIKIGRSVARCRPAQNNATFDCKVLSRNHALVWFDHKTGKFYLQDTKSSNGTFINSQRLSRGSEESPPCEILSGDIIQFGVDVTENTRKVTHGCIVSTIKLFLPDGMEARLRSDVIHAPLPSPVDKVAANTPSMYSQELFQLSQYLQEALHREQMLEQKLATLQRLLAITQEASDTSWQALIDEDRLLSRLEVMGNQLQACSKNQTEDSLRKELIALQEDKHNYETTAKESLRRVLQEKIEVVRKLSEVERSLSNTEDECTHLKEMNERTQEELRELANKYNGAVNEIKDLSDKLKVAEGKQEEIQQKGQAEKKELQHKIDEMEEKEQELQAKIEALQADNDFTNERLTALQVRLEHLQEKTLKECSSLEHLLSKSGGDCTFIHQFIECQKKLIVEGHLTKAVEETKLSKENQTRAKESDFSDTLSPSKEKSSDDTTDAQMDEQDLNEPLAKVSLLKDDLQGAQSEIEAKQEIQHLRKELIEAQELARTSKQKCFELQALLEEERKAYRNQVEESTKQIQVLQAQLQRLHIDTENLREEKDSEITSTRDELLSARDEILLLHQAAAKVASERDTDIASLQEELKKVRAELERWRKAASEYEKEITSLQNSFQLRCQQCEDQQREEATRLQGELEKLRKEWNALETECHSLKRENVLLSSELQRQEKELHNSQKQSLELTSDLSILQMSRKELENQVGSLKEQHLRDSADLKTLLSKAENQAKDVQKEYEKTQTVLSELKLKFEMTEQEKQSITDELKQCKNNLKLLREKGNNKPWPWMPMLAALVAVTAIVLYVPGLARASP [SLMAP]”, the results for the melting temperature in data set [1] (cell cycle stage: G1/S) and in data set [1] (cell cycle stage: mitosis) were 50.6 °C and 51.2 °C, respectively. The “solubility in G1/S (log2)” value in data set [2] came out at 0.152. For the same sequence, in data set [3], the “solubility change mitosis (log2)” value was found to be 0.0117. The thermal stability score in data set [4] (setting [5]) was found to be 0.404; in data set [4] (cell cycle stage: mitosis), 0.436.
